Results as given in the supplement of paper PMC11780869.

Test system: Bacillus subtilis
Experiment: cleaved RNA product abundance (RNA/gDNA barcode ratio) relative to median wild-type variant (ratio to wild type); higher = more accumulation of the downstream cleavage product
Summary of the method: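 Oligos with a 9% error rate were used to build barcoded, mutagenized RNase Y cleavage-site windows within truncated aprE or tetM reporter mRNAs, which were integrated into the B. subtilis chromosome. Cultures were grown in LB at 37°C between OD600 0.0003 and 0.3. Cleaved RNA was gel-selected, reverse transcribed and barcode-sequenced, as were genomic DNA barcodes, and UMIs were collapsed. Cleaved product abundance is the scaled RNA:gDNA barcode ratio, with the median construct carrying the unmutated site as reference.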

[1] = experiment (reporter, strain, medium): exp 2b: truncated aprE reporter, strain BJT200, cleavage site: cggR-gapA (positions -7 to +36 mutated)
[2] = experiment (reporter, strain, medium): exp 4a: truncated aprE reporter, strain BJT201 with 2% xylose (RNase J1 expressed), cleavage site: cggR-gapA (positions -7 to +36 mutated)
[3] = experiment (reporter, strain, medium): exp 6: tetM reporter, strain 168, cleavage site: cggR-gapA (positions -7 to +36 mutated)
[4] = experiment (reporter, strain, medium): exp 8a: truncated aprE reporter, strain BJT201 with 2% xylose (RNase J1 expressed), cleavage site: glnRA (positions -5 to +31 mutated)

| Sequence | cleaved RNA product abundance [2] | cleaved RNA product abundance [4] | also measured |
| --- | --- | --- | --- |
| ACAGACGAAGGAGCCGCTAAGAAGTTATTAAGGGATGAATAATCCCTAAATATAAATATCTCTCACTTATTTAAA | 0.831 | – | cleaved RNA product abundance [1]: 0.745 |
| ACAGACGAAGGAGCCGCTAAGAAGTTATTAAGGGATGAATAATCCCTCAACATAAATATCTCTCACTTATTTAAA | 0.291 | – | – |
| ACAGACGAAGGAGCCGCTAAGAAGTTATTAAGGGATGAATAATCCCTCAAGATAAATATCTCTCACTTATTTAAA | 0.322 | – | cleaved RNA product abundance [1]: 0.249 |
| ACAGACGAAGGAGCCGCTAAGAAGTTATTAAGGGATGAATAATCCCTCAATATAAATATCTCTCACTTATTTAAA | 0.985 | – | cleaved RNA product abundance [1]: 1.04; cleaved RNA product abundance [3]: 1.03 |
| ACAGACGAAGGAGCCGCTAAGAAGTTATTAAGGGATGAATAATCCCTCAATGTAAATATCTCTCACTTATTTAAA | 0.0932 | – | – |
| ACAGACGAAGGAGCCGCTAAGAAGTTATTAAGGGATGAATAATCCCTCTATATAAATATCTCTCACTTATTTAAA | 0.509 | – | – |
| ACAGACGAAGGAGCCGCTAAGAAGTTATTAAGGGATGAATAATCCTTCAATATAAATATCTCTCACTTATTTAAA | 0.597 | – | cleaved RNA product abundance [1]: 0.434 |
| ACAGACGAAGGAGCCGCTAAGAAGTTATTAAGGGATGAATAATCTCTCAATATAAATATCTCTCACTTATTTAAA | 1.12 | – | – |
| ACAGACGAAGGAGCCGCTAAGAAGTTATTAAGGGATGAATAATGCCTCAATATAAATATCTCTCACTTATTTAAA | 0.154 | – | – |
| ACAGACGAAGGAGCCGCTAAGAAGTTATTAAGGGATGAATAATTCCTCAATATAAATATCTCTCACTTATTTAAA | – | – | cleaved RNA product abundance [1]: 0.713 |
| ACAGACGAAGGAGCCGCTAAGAAGTTATTAAGGGATGAATATTCCCTCAATATAAATATCTCTCACTTATTTAAA | 0.667 | – | – |
| ACAGACGAAGGAGCCGCTAAGAAGTTATTAAGGGATGAATTATCCCTCAATATAAATATCTCTCACTTATTTAAA | 0.874 | – | – |
| ACAGACGAAGGAGCCGCTAAGAAGTTATTAAGGGATGACTAATCCCTCAATATAAATATCTCTCACTTATTTAAA | 0.542 | – | – |
| ACAGACGAAGGAGCCGCTAAGAAGTTATTAAGGGATGCATAATCCCTCAATATAAATATCTCTCACTTATTTAAA | 0.814 | – | cleaved RNA product abundance [1]: 0.968 |
| ACAGACGAAGGAGCCGCTAAGAAGTTATTAAGGGATTAATAATCCCTCAATATAAATATCTCTCACTTATTTAAA | 1.02 | – | – |
| ACAGACGAAGGAGCCGCTAAGAAGTTATTAAGGGTTGAATAATCCCTCAATATAAATATCTCTCACTTATTTAAA | 0.377 | – | – |
| ACAGACGAAGGAGCCGCTAAGAAGTTATTAAGGTATAAATAATCCCTCAATATAAATATCTCTCACTTATTTAAA | 0.0621 | – | – |
| ACAGACGAAGGAGCCGCTAAGAAGTTATTAAGGTATGAATAATCCCTCAATATAAATATCTCTCACTTATTTAAA | 0.296 | – | cleaved RNA product abundance [1]: 0.114 |
| ACAGACGAAGGAGCCGCTAAGAAGTTATTAAGTGATGAATAATCCCTCAATATAAATATCTCTCACTTATTTAAA | 0.167 | – | – |
| ACAGACGAAGGAGCCGCTAAGAAGTTATTAATGGATGAATAATCCCTCAATATAAATATCTCTCACTTATTTAAA | 0.172 | – | – |
| ACAGACGAAGGAGCCGCTAAGAAGTTCTTAAGGGATGAATAATCCCTCAATACAAATATCTCTCACTTATTTAAA | 0.0591 | – | – |

| Sequence | cleaved RNA product abundance [2] | cleaved RNA product abundance [4] | also measured |
| --- | --- | --- | --- |
| ACAGACGAAGGAGCCGCTAAGAAGTTGTTAAGGGATGAATAATCCCTCAATATAAATATCTCTCACTTATTTAAA | 0.503 | – | – |
| ACAGACGAAGGAGCCGCTAAGAATTTATTAAGGGATGAATAATCCCTCAATATAAATATCTCTCACTTATTTAAA | 0.468 | – | – |
| ACAGACGAAGGAGCCGCTAAGATGTTATTAAGGGATGAATAATCCCTCAATATAAATATCTCTCACTTATTTAAA | 1.18 | – | – |
| ACAGACGAAGGAGCCGCTAAGTAGTTATTAAGGGATGAATAATCCCTCAATATAAATATCTCTCACTTATTTAAA | 1.27 | – | – |
| ACAGACGAAGGAGCCGCTACGAAGTTATTAAGGGATGAATAATCTCTCAATATAAATATCTCTCACTTATTTAAA | 0.816 | – | – |
| ACAGACGAAGGAGCCGCTATGAAGTTATTAAGGGATGAATAATCCCTCAATATAAATATCTCTCACTTATTTAAA | 0.952 | – | – |
| ACAGACGAAGGAGCCGGAAAGAAGTTATTAAGGGATGAATAATCCCTCAATATAAATATCTCTCACTTATTTAAA | – | – | cleaved RNA product abundance [3]: 0.897 |
| ACAGACGAAGGAGCCGTAAAGAAGTTATTAAGGCATGAATAATCCCTCAATATAAATATCTCTCACTTATTTAAA | – | – | cleaved RNA product abundance [3]: 0.143 |
| ACAGACGAAGGAGCCGTAAAGAAGTTATTAAGGGATGAATAATCCCTCAATATAAATATCTCTCACTTATTTAAA | – | – | cleaved RNA product abundance [3]: 1.09 |
| ACAGACGAAGGAGCCTCAAAGAAGTTATTAAGGCATGAATAATCCCTCAATATAAATATCTCTCACTTATTTAAA | – | – | cleaved RNA product abundance [3]: 0.157 |
| ACAGACGAAGGAGCCTCAAAGAAGTTATTAAGGGATGAATAATCCCTCAATATAAATATCTCTCACTTATTTAAA | – | – | cleaved RNA product abundance [3]: 1.25 |
| ACAGACGAAGGAGCCTCAAAGAAGTTATTAAGTGATGAATAATCCCTCAATATAAATATCTCTCACTTATTTAAA | – | – | cleaved RNA product abundance [3]: 0.135 |
| ACAGACGAAGGAGCTGCAAAGAAGTTATTAAGGAATGAATAATCCCTCAATATAAATATCTCTCACTTATTTAAA | – | – | cleaved RNA product abundance [3]: 0.134 |
| ACAGACGAAGGAGCTGCAAAGAAGTTATTAAGGGATGAATAATCCCTCAATATAAATATCTCTCACTTATTTAAA | – | – | cleaved RNA product abundance [3]: 0.987 |
| ACAGACGAAGGAGTCGCAAAGAAGTTATTAAGGGATGAATAATCCCTCAATATAAATATCTCTCACTTATTTAAA | – | – | cleaved RNA product abundance [3]: 1.46 |
| CGACATGTCCCGCTTCTTTCATAATCCGTTAGCAACTGTTTTGCTATATACATTTACCTTTTAAGAGGAGGAATT | – | 1.13 | – |
| CGACATGTCCCGCTTCTTTCATTAAAACGTTAGCAACTGTTTTGCTATATACATTTACCTTTTAAGAGGAGGAAT | – | 0.868 | – |
| CGACATGTCCCGCTTCTTTCATTAAACCCTTAGCAACTGTTTTGCTATATACATTTACCTTTTAAGAGGAGGAAT | – | 0.18 | – |
| CGACATGTCCCGCTTCTTTCATTAAACCGTAAGCAACTGTTTTGCTATATACATTTACCTTTTAAGAGGAGGAAT | – | 0.203 | – |
| CGACATGTCCCGCTTCTTTCATTAAACCGTGAACAACTGTGTTGCAATATACATGTACCTTTTAAGAGGAGGAAT | – | 0.222 | – |
| CGACATGTCCCGCTTCTTTCATTAAACCGTTACCAACTGTTTTGCTATATACATTTACCTTTTAAGAGGAGGAAT | – | 0.189 | – |

| Sequence | cleaved RNA product abundance [2] | cleaved RNA product abundance [4] | also measured |
| --- | --- | --- | --- |
| CGACATGTCCCGCTTCTTTCATTAAACCGTTAGAAACTGTTTTGCTATATACATTTACCTTTTAAGAGGAGGAAT | – | 0.147 | – |
| CGACATGTCCCGCTTCTTTCATTAAACCGTTAGCAACAGTTTTGCTATATACATTTACCTTTTAAGAGGAGGAAT | – | 1.01 | – |
| CGACATGTCCCGCTTCTTTCATTAAACCGTTAGCAACTGTCTTGCTATATACATTTACCTTTTAAGAGGAGGAAT | – | 0.759 | – |
| CGACATGTCCCGCTTCTTTCATTAAACCGTTAGCAACTGTTATGCTATATACATTTACCTTTTAAGAGGAGGAAT | – | 0.552 | – |
| CGACATGTCCCGCTTCTTTCATTAAACCGTTAGCAACTGTTTAACTATATACATTTACCTTTTAAGAGGAGGAAT | – | 0.444 | – |
| CGACATGTCCCGCTTCTTTCATTAAACCGTTAGCAACTGTTTAGCTATATACATTTACCTTTTAAGAGGAGGAAT | – | 0.248 | – |
| CGACATGTCCCGCTTCTTTCATTAAACCGTTAGCAACTGTTTCGCTATATACATTTACCTTTTAAGAGGAGGAAT | – | 0.164 | – |
| CGACATGTCCCGCTTCTTTCATTAAACCGTTAGCAACTGTTTTACTATATACATTTACCTTTTAAGAGGAGGAAT | – | 0.458 | – |
| CGACATGTCCCGCTTCTTTCATTAAACCGTTAGCAACTGTTTTGATATATACATTTACCTTTTAAGAGGAGGAAT | – | 0.428 | – |
| CGACATGTCCCGCTTCTTTCATTAAACCGTTAGCAACTGTTTTGCGATATACATTTACCTTTTAAGAGGAGGAAT | – | 0.352 | – |
| CGACATGTCCCGCTTCTTTCATTAAACCGTTAGCAACTGTTTTGCTACATACATTTACCTTTTAAGAGGAGGAAT | – | 0.237 | – |
| CGACATGTCCCGCTTCTTTCATTAAACCGTTAGCAACTGTTTTGCTATATAAATTTACCTTTTAAGAGGAGGAAT | – | 1.02 | – |
| CGACATGTCCCGCTTCTTTCATTAAACCGTTAGCAACTGTTTTGCTATATACATATACCTTTTAAGAGGAGGAAT | – | 0.825 | – |
| CGACATGTCCCGCTTCTTTCATTAAACCGTTAGCAACTGTTTTGCTATATACATTTACCATTTAAGAGGAGGAAT | – | 1.29 | – |
| CGACATGTCCCGCTTCTTTCATTAAACCGTTAGCAACTGTTTTGCTATATACATTTACCTTTTAAGAGGAGGAAT | – | 0.915 | – |
| CGACATGTCCCGCTTCTTTCATTAAACCGTTAGCAACTGTTTTGCTATATACATTTACTTTTTAAGAGGAGGAAT | – | 0.665 | – |
| CGACATGTCCCGCTTCTTTCATTAAACCGTTAGCAACTGTTTTGCTATATACATTTTCCTTTTAAGAGGAGGAAT | – | 0.432 | – |
| CGACATGTCCCGCTTCTTTCATTAAACCGTTAGCAACTGTTTTGCTATATACTTTTACCTTTTAAGAGGAGGAAT | – | 0.534 | – |
| CGACATGTCCCGCTTCTTTCATTAAACCGTTAGCAACTGTTTTGCTATATAGATTTACCTTTTAAGAGGAGGAAT | – | 1.35 | – |
| CGACATGTCCCGCTTCTTTCATTAAACCGTTAGCAACTGTTTTGCTATATCCATTTACCTTTTAAGAGGAGGAAT | – | 0.0869 | – |
| CGACATGTCCCGCTTCTTTCATTAAACCGTTAGCAACTGTTTTGCTTTATACATTTACCTTTTAAGAGGAGGAAT | – | 0.165 | – |
